Reference: article PMC5062604

Target: Pseudomonas aeruginosa type I-F CRISPR-Cas surveillance complex (Csy complex) (P. aeruginosa) (UniProt Q02MM1)
Experiment: SEC; competition: purified Csy complex pre-incubated 1 h with a 10-fold molar excess of FLAG-tagged AcrF1 (mutant or wild type), then an equal amount of HA-tagged wild-type AcrF1 added for 1 h; size exclusion chromatography; peak fractions by SDS-PAGE, silver staining and Western blot

Row | Substance | percent exchanged with HA-tagged wild-type AcrF1 at 1 h [%]
1 | FLAG-tagged AcrF1 E31A (natural protein) | 50
2 | FLAG-tagged AcrF1 Y20A (natural protein) | 50
